Measured values taken from US20240116985A1, “STAPLED PEPTIDES AND METHODS THEREOF” (priority 2020, published 2024).
Starred links: 1 amine or outer side, 2 acyl side, 3 side chain; linkers in the order of their positions; H or OH if unused. Positions of bridges follow the written chain, without caps; N, C: chain ends. Non-standard residues stand in square brackets, D forms with d. Primed or numbered codes have the meaning given here. PyrS2″ = (S)-3-amino-1-((pent-4-en-1-yloxy)carbonyl)pyrrolidine-3-carboxylic acid (stapling residue), C=CCCCOC(=O)N1CC[C@@](N[*:1])(C(=O)[*:2])C1; B5(4) = 2,2-bis(4-pentenyl)glycine = 2-amino-2-(pent-4-en-1-yl)hept-6-enoic acid (stitching residue), C=CCCCC(CCCC=C)(N[*:1])C(=O)[*:2]; B5(5) = 2,2-bis(4-pentenyl)glycine, 2-amino-2-(pent-4-en-1-yl)hept-6-enoic acid (stitching residue), C=CCCCC(CCCC=C)(N[*:1])C(=O)[*:2]; PyrS2 = (S)-3-amino-1-((pent-4-en-1-yloxy)carbonyl)pyrrolidine-3-carboxylic acid, C=CCCCOC(=O)N1CC[C@@](N[*:1])(C(=O)[*:2])C1; B5(12) = 2-amino-2-(pent-4-en-1-yl)hept-6-enoic acid (two olefin side chains), C=CCCCC(CCCC=C)(N[*:1])C(=O)[*:2]; B5(19) = 2-amino-2-(pent-4-en-1-yl)hept-6-enoic acid (bis(4-pentenyl)glycine), C=CCCCC(CCCC=C)(N[*:1])C(=O)[*:2]; B5(3) = 2,2-bis(4-pentenyl)glycine (stitching residue), C=CCCCC(CCCC=C)(N[*:1])C(=O)[*:2]; Phe(3-COOH) = N[C@@H](Cc1cccc(C(=O)O)c1)C(=O)O; Phe(2-CF3) = N[C@@H](Cc1ccccc1C(F)(F)F)C(=O)O; Phe(2-Cl) = N[C@@H](Cc1ccccc1Cl)C(=O)O; Bta = N[C@@H](Cc1csc2ccccc12)C(=O)O; αAllylPro = C=CC[C@@]1(C(=O)O)CCCN1; tBuAla = CC(C)(C)C[C@H](N)C(=O)O; Gly(cBu) = N[C@H](C(=O)O)C1CCC1; 3Thi = N[C@@H](Cc1ccsc1)C(=O)O; S8 = C=CCCCCCC[C@](C)(N)C(=O)O; hSer = N[C@@H](CCO)C(=O)O; Nle = CCCC[C@H](N)C(=O)O; Ac5c = NC1(C(=O)O)CCCC1; Aib = CC(C)(N)C(=O)O

Key:
[1] = molecular target: full-length beta-Catenin (Uniprot ID P35222) (Homo sapiens (Human)) (UniProt P35222); assay: fluorescence polarization competition against 5FAM-TCF4 (10-53) on full-length beta-catenin
Target sequence in this assay (P35222 2-781 limits assumed): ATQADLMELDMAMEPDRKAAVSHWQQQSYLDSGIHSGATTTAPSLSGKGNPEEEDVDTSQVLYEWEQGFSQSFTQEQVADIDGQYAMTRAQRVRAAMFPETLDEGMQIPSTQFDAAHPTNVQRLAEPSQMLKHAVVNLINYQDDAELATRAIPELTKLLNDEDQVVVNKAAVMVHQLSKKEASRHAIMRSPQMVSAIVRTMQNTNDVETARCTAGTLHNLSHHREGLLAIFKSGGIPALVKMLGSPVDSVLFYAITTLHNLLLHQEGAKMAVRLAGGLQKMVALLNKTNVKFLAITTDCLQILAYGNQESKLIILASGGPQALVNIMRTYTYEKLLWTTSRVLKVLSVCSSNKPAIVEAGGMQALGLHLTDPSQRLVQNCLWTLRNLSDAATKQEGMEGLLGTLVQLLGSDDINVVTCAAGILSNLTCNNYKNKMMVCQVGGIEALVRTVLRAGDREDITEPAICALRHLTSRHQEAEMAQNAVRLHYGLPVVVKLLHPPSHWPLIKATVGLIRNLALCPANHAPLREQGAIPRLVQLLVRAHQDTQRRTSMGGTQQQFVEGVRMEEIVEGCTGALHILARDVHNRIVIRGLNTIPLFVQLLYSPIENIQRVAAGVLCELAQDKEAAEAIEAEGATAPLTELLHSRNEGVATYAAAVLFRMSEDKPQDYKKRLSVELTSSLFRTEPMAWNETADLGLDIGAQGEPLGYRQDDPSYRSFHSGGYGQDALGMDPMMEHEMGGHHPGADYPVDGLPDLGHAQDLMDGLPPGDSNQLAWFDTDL

[2] = molecular target: Bcat-Halo (beta-catenin HaloTag construct expressed in HEK293 cells) (UniProt P35222); assay: NanoBRET Abs IC50 in HEK293 cells; B-cat-Halo with competitor TCF4-Luc
Chain of Bcat-Halo (beta-catenin HaloTag construct expressed in HEK293 cells) (P35222 whole entry): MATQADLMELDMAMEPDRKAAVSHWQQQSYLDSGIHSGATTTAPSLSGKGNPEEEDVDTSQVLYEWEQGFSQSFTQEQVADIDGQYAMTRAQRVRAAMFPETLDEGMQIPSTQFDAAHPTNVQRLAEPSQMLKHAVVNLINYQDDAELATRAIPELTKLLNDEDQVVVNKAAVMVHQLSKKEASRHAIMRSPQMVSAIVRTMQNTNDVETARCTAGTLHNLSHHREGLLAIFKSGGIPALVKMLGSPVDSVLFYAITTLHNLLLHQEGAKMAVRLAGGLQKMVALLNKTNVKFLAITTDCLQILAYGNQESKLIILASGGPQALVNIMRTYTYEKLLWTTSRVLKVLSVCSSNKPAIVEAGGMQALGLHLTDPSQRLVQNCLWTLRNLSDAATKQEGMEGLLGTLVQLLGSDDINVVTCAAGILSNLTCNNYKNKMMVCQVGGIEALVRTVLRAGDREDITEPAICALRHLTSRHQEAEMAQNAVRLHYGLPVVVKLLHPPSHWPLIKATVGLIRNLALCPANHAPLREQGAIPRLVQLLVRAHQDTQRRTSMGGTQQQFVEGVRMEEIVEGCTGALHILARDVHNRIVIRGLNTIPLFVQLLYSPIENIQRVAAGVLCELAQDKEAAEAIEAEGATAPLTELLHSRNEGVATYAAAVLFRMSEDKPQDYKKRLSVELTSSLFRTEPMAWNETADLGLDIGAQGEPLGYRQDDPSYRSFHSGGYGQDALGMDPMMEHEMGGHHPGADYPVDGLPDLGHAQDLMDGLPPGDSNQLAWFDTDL

[3] = molecular target: full-length beta-Catenin (Uniprot ID P35222) (Homo sapiens (Human)) (UniProt P35222); assay: fluorescence polarization competition; full-length beta-catenin, competitor 5FAM-TCF4 10-53 probe
Target sequence in this assay (P35222 2-781 limits assumed): as the sequence (P35222 2-781 limits assumed) above

[4] = molecular target: beta-catenin (Homo sapiens (Human)) (UniProt P35222); assay: fluorescence polarization competition; full-length beta-catenin with 5FAM-TCF4(10-53) probe as competitor
Chain of beta-catenin (Homo sapiens (Human)) (P35222 whole entry): as the sequence (P35222 whole entry) above

[5] = molecular target: full-length beta-Catenin (Uniprot ID P35222) (Homo sapiens (Human)) (UniProt P35222); assay: FP competition; full-length beta-catenin, competitor 5FAM-TCF4(10-53)
Target sequence in this assay (P35222 whole entry, one chain of several): as the sequence (P35222 whole entry) above

Bcat-Halo = Bcat-Halo (UniProt P35222); assay: NanoBRET Abs IC50, HEK293 cells; Bcat-Halo / TCF4-Luc engagement
Chain of Bcat-Halo (P35222 whole entry): as above

[6] = molecular target: full-length beta-Catenin (Uniprot ID P35222) (Homo sapiens (Human)) (UniProt P35222); assay: fluorescence polarization competition; full-length beta-catenin, competitor 5FAM-TCF4(10-53)
Target sequence in this assay (P35222 2-781 limits assumed): as the sequence (P35222 2-781 limits assumed) above

[7] = molecular target: full-length beta-Catenin (Uniprot ID P35222) (Homo sapiens (Human)) (UniProt P35222); assay: cell-based or functional assay
Target sequence in this assay (P35222 2-781 limits assumed): as above

[8] = molecular target: full-length beta-Catenin (Uniprot ID P35222) (Homo sapiens (Human)) (UniProt P35222); assay: fluorescence polarization competition; 10 nM full-length beta-catenin with 10 nM 5FAM-TCF4(10-53) probe as competitor
Target sequence in this assay (P35222 2-781 limits assumed): as above

[9] = molecular target: full-length beta-Catenin (Uniprot ID P35222) (Homo sapiens (Human)) (UniProt P35222); assay: fluorescence polarization competition, peptide titrated against full-length beta-catenin + 5FAM-TCF4(10-53)
Target sequence in this assay (P35222 2-781 limits assumed): as above

IC50 [1]	IC50 (Bcat-Halo)	IC50 [6]	DLD1 4% Abs IC50 [7]	Binder	also measured
	> 20000 nM	61 nM	5600 nM	Ac-[αAllylPro]D[tBuAla][B5(5)]D[Phe(3-COOH)]AAFL[PyrS2][Phe(2-CF3)][Bta]QLR-NH2 (staple 1-4, 4-11) [I-2393]	
	2800 nM	75.5 nM	700 nM	Ac-[αAllylPro]D[tBuAla][B5(5)]D[Phe(3-COOH)]AAFL[PyrS2″][Phe(2-CF3)][Bta]QL[Aib]-NH2 (staple 1-4, 4-11) [I-2386]	
	4200 nM	77 nM	800 nM	Ac-[αAllylPro]D[tBuAla][B5(5)]D[Phe(3-COOH)]AAFL[PyrS2″][Phe(2-CF3)][Bta]QLT-NH2 (staple 1-4, 4-11) [I-2383]	
	7100 nM	120 nM	1500 nM	Ac-[αAllylPro]D[tBuAla][B5(5)]D[Phe(3-COOH)]AAFL[PyrS2″][Phe(2-CF3)][Bta]QL[Ac5c]-NH2 (staple 1-4, 4-11) [I-2387]	
	9100 nM	22 nM	1400 nM	Ac-[αAllylPro]D[tBuAla][B5(5)]D[Phe(3-COOH)]AAFL[PyrS2][Phe(2-CF3)][Bta]QLN-NH2 (staple 1-4, 4-11) [I-2390]	
	8600 nM	462 nM		Ac-[αAllylPro]D[tBuAla][B5(5)]D[Phe(3-COOH)]AAFL[PyrS2][Phe(2-CF3)][Bta]QLY-NH2 (staple 1-4, 4-11) [I-2392]	
	8200 nM	110 nM	700 nM	Ac-[αAllylPro]D[tBuAla][B5(5)]D[Phe(3-COOH)]AAFL[PyrS2][Phe(2-CF3)][Bta]QL[Nle]-NH2 (staple 1-4, 4-11) [I-2391]	
9 nM				Ac-[αAllylPro]D[tBuAla][B5(3)]D[Phe(3-COOH)]SAFL[PyrS2″][3Thi][Bta]A-NH2 (staple 1-4, 4-11) [I-2050]	
	5700 nM	133 nM	1200 nM	Ac-[αAllylPro]D[tBuAla][B5(5)]D[Phe(3-COOH)]AAFL[PyrS2″][Phe(2-CF3)][Bta]QL[Gly(cBu)]-NH2 (staple 1-4, 4-11) [I-2388]	
	2100 nM	1470 nM	1100 nM	Ac-[αAllylPro]D[tBuAla][B5(5)]D[Phe(3-COOH)]AAFL[PyrS2″][Phe(2-CF3)][Bta]QLF-NH2 (staple 1-4, 4-11) [I-2381]	
	2700 nM	330 nM	1500 nM	Ac-[αAllylPro]D[tBuAla][B5(5)]D[Phe(3-COOH)]AAFL[PyrS2″][Phe(2-CF3)][Bta]QLL-NH2 (staple 1-4, 4-11) [I-2380]	
	4600 nM	5 nM	1100 nM	Ac-[αAllylPro]D[tBuAla][B5(5)]D[Phe(3-COOH)]AAFL[PyrS2″][Phe(2-CF3)][Bta]QLS-NH2 (staple 1-4, 4-11) [I-2384]	

The remaining lines, values behind:

Binder	IC50 [1]	IC50 (Bcat-Halo)	IC50 [6]	DLD1 4% Abs IC50 [7]	also measured
Ac-[αAllylPro]D[tBuAla][B5(3)]D[Phe(3-COOH)]AAFA[PyrS2″][Phe(2-Cl)][Bta]N-NH2 (staple 1-4, 4-11) [I-2036]	19 nM				
Ac-[αAllylPro]D[tBuAla][B5(3)]D[Phe(3-COOH)]AAFA[PyrS2″][3Thi][Bta]N-NH2 (staple 1-4, 4-11) [I-2042]	9 nM				
Ac-[αAllylPro]D[Nle][B5(12)]DDAAFL[PyrS2″][3Thi][Bta]L-NH2 (staple 1-4, 4-11) [I-1412]					IC50 [2]: > 20000 nM; IC50 [3]: 79 nM; EC50 [4]: 79 nM
Ac-[αAllylPro]D[tBuAla][B5(3)]D[Phe(3-COOH)]AAFA[PyrS2″][Phe(2-Cl)][Bta]N-NH2 (staple 1-4, 4-11; also: staple isomer, earlier eluting HPLC peak) [I-2035]	16 nM				
Ac-[αAllylPro]D[tBuAla][B5(19)]DDAAF[hSer][S8][Phe(2-Cl)][Bta]Q-NH2 (staple 1-4, 4-11) [I-1395]					IC50 [2]: 15400 nM; IC50 [3]: 33 nM; EC50 [5]: 33 nM
Ac-[αAllylPro]D[tBuAla][B5(3)]D[Phe(3-COOH)]AAFF[PyrS2″][3Thi][Bta]N-NH2 (staple 1-4, 4-11) [I-2044]	9 nM				
Ac-[αAllylPro]DL[B5(12)]D[Phe(3-COOH)]AAF[Nle][PyrS2″][3Thi][Bta]Q-NH2 (staple 1-4, 4-11) [I-1407]					IC50 [2]: 4200 nM; IC50 [3]: 5 nM; EC50 [4]: 5 nM
Ac-[αAllylPro]D[tBuAla][B5(3)]D[Phe(3-COOH)]AAFL[PyrS2″][Phe(2-Cl)][Bta]NAAA-NH2 (staple 1-4, 4-11) [I-2040]	24 nM				
Ac-[αAllylPro]D[tBuAla][B5(3)]D[Phe(3-COOH)]AAFF[PyrS2″][Phe(2-Cl)][Bta]N-NH2 (staple 1-4, 4-11) [I-2037]	17 nM				
Ac-[αAllylPro]D[tBuAla][B5(3)]D[Phe(3-COOH)]AAFL[PyrS2″][3Thi][Bta]N-NH2 (staple 1-4, 4-11) [I-2043]	8 nM				
Ac-[αAllylPro]D[tBuAla][B5(4)]DDAAFF[PyrS2″][3Thi][Bta]H-NH2 (staple 1-4, 4-11) [I-808]					IC50 [8]: 5 nM; EC50 [9]: 5 nM
Ac-[αAllylPro]D[tBuAla][B5(3)]D[Phe(3-COOH)]AAFS[PyrS2″][3Thi][Bta]N-NH2 (staple 1-4, 4-11) [I-2045]	5 nM				
Ac-[αAllylPro]D[tBuAla][B5(3)]D[Phe(3-COOH)]AAFL[PyrS2″][Phe(2-Cl)][Bta]NAA[dA]-NH2 (staple 1-4, 4-11) [I-2041]	16 nM				
Ac-[αAllylPro]D[tBuAla][B5(3)]D[Phe(3-COOH)]AAFN[PyrS2″][Phe(2-Cl)][Bta]F-NH2 (staple 1-4, 4-11) [I-2033]	30 nM				
Ac-[αAllylPro]D[Nle][B5(12)]DDAAFL[PyrS2″][3Thi][Bta]L-NH2 (staple 1-4, 4-11; also: staple isomer, earlier eluting HPLC peak) [I-1411]					IC50 [2]: 47100 nM; IC50 [3]: 109 nM; EC50 [4]: 109 nM
Ac-[αAllylPro]DL[B5(12)]D[Phe(3-COOH)]AAFL[PyrS2″][3Thi][Bta]Q-NH2 (staple 1-4, 4-11) [I-1406]					IC50 [2]: 5000 nM; IC50 [3]: 6 nM; EC50 [4]: 6 nM
Ac-[αAllylPro]D[tBuAla][B5(19)]DDAAF[hSer][S8][Phe(2-CF3)][Bta]Q-NH2 (staple 1-4, 4-11) [I-1397]					IC50 [2]: 16400 nM; IC50 [3]: 48 nM; EC50 [5]: 48 nM
Ac-[αAllylPro]D[tBuAla][B5(12)]DDAAFL[PyrS2″][3Thi][Bta]L-NH2 (staple 1-4, 4-11) [I-1409]					IC50 [2]: 24000 nM; IC50 [3]: 74 nM; EC50 [4]: 74 nM
Ac-[αAllylPro]DL[B5(12)]DDAAFL[PyrS2″][3Thi][Bta]L-NH2 (staple 1-4, 4-11) [I-1410]					IC50 [2]: 29300 nM; IC50 [3]: 80 nM; EC50 [4]: 80 nM
